The DeepSol protein solubility set

Assay: soluble on expression in E. coli; label from the status in PepcDB or PDB records

Question: For “GSDKIHHHHHHMLTMKDIIRDGHPTLRQKAAELELPLTKEEKETLIAMREFLVNSQDEEIAKRYGLRSGVGLAAPQINISKRMIAVLIPDDGSGKSYDYMLVNPKIVSHSVQEAYLPTGEGCLSVDDNVAGLVHRHNRITIKAKDIEGNDIQLRLKGYPAIVFQHEIDHLNGVMFYDHIDKNHPLQPHTDAVEV”, which “soluble on expression in E. coli” value is on record?
Answer: Its value is “soluble”.

Question: Which “soluble on expression in E. coli” value does the source give for “GSDNESDEEVAGKKSFSAQEREYIRQGKEATAVVDQILAQEENWKFEKNNEYGDTVYTIEVPFHGKTFILKTFLPCPAELVYQEVILQPERMVLWNKTVTACQILQRVEDNTLISYDVSAGAAGGVVSPRDFVNVRRIERRRDRYLSSGIATSHSAKPPTHKYVRGENGPGGMIVLKSASNPRVCTFVWILNTDLKGRLPRYLIHQSLAATMFEFAFHLRQRISELGAR” here?
Answer: Its value is “soluble”.

Question: With “GSGKSLLLKVILLGDGGVGKSSLMNRYVTNKFDSQAFHTIGVEFLNRDLEVDGRFVTLQIWDTAGQERFKSLRTPFYRGADCCLLTFSVDDRQSFENLGNWQKEFIYYADVKDPEHFPFVVLGNKVDKEDRQVTTEEAQTWCMENGDYPYLETSAKDDTNVTVAFEEAVRQVLAVEEQLE” as the sequence, how does the “soluble on expression in E. coli” value read?
Answer: Its value is “soluble”.

Question: For “GSHHPFTAQIVAVTASGYDSEKGHVPANIADGDVKTRWAASGESWVQLELDKEQSIENILIVPFKPTERKLKFSIFYSNDGKNWQPLAEGLETSSADKNGEKLTFTPVTAKYIKLDTFGTDVNNWSAINEIAINSAAALPSRAIK”, which “soluble on expression in E. coli” value is on record?
Answer: The value was “soluble”.

Question: With “GSHMARGKLKAPKWPILKNLELLQAQNYSRNIKTFPYKELNKSMYYDKWVCMCRCEDGALHFTQLKDSKTITTITTPNPRTGGEHPAIISRGPCNRLLLLYPGNQITILDSKTNKVLREIEVDSANEIIYMYGHNEVNTEYFIWADNRGTIGFQSYEDDSQYIVHSAKSDVEYSSGVLHKDSLLLALYSPDGILDVYNLSSPDQASSRFPVDEEAKIKEVKFADNGYWMVVECDQTVVCFDLRKDVGTLAYPTYTIPEFKTGTVTYDIDDSGKNMIAYSNESNSLTIYKFDKKTKNWTKDEESALCLQSDTADFTDMDVVCGDGGIAAILKTNDSFNIVALTP” as the sequence, how does the “soluble on expression in E. coli” value read?
Answer: Its value is “soluble”.

Question: Which “soluble on expression in E. coli” value does the source give for “GSHMASMTGGQQMGRGSNNGDICIKDSINTLWTGINPPPNCQIVENTNTNDGKLTLVLVKNGGLVNGYVSLVGVSDTVNQMFTQKTANIQLRLYFDSSGNLLTEESDLKIPLKNKSSTATSETVASSKAFMPSTTAYPFNTTTRDSENYIHGICYYMTSYDRSLFPLNISIMLNSRMISSNVAYAIQFEWNLNASESPESNIATLTTSPFFFSYITEDDN” here?
Answer: Its value is “soluble”.

Question: For “GSHMASSEDEKLSFEAVRNIHKLMDDDANGDVDVEESDEFLREDLNYHDPTVKHSTFHGEDKLISVEDLWKAWKSSEVYNWTVDEVVQWLITYVELPQYEETFRKLQLSGHAMPRLAVTNTTMTGTVLKMTDRSHRQKLQLKALDTVLFG”, which “soluble on expression in E. coli” value is on record?
Answer: Its value is “soluble”.

Question: With “GSHMDINNKARIHWACRRGMRELDISIMPFFEHEYDSLSDDEKRIFIRLLECDDPDLFNWLMNHGKPADAELEMMVRLIQTRNRERGPVAI” as the sequence, how does the “soluble on expression in E. coli” value read?
Answer: Its value is “soluble”.

Question: Which “soluble on expression in E. coli” value does the source give for “GSHMIEPNVISVRLFKRKVGGLGFLVKERVSKPPVIISDLIRGGAAEQSGLIQAGDIILAVNDRPLVDLSYDSALEVLRGIASETHVVLILRGPEGFTTHLETTFTGDGTPKTIRVTQPLGPPTKAV” here?
Answer: Its value is “soluble”.

Question: Which “soluble on expression in E. coli” value does the source give for “GSHMKNSVSVDLPGEMKVLVSKEKNKDGKYDLIATVDKLELKGTSDKNNGSGVLEGVKADKSKVKLTISDDLGQTTLEVFKEDGKTLVSKKVTSKDKSSTEEKFNEKGELSEKKITRADKSSTEEKFNEKGELSEKKITRADKSSTEEKFNEKGELSEKKITRADKSSTEEKFNEKGELSEKKITRADKSSTEEKFNEKGELSEKKITRADKSSTEEKFNEKGEVSEKIITRADGTRLEYTGIKSDGSGKAKEVLKGYVLEGTLTAEKTTLVVKEGTVTLSKNISKSGEVSVELNDTDSSAATKKTAAWNSGTSTLTITVNSKKTKDLVFTKENTITVQQYDSNGTKLEGSAVEITKLDEIKNALK” here?
Answer: The value was “soluble”.

Question: For “GSHMPVVHVIDVESGNLQSLTNAIEHLGYEVQLVKSPKDFNISGTSRLILPGVGNYGHFVDNLFNRGFEKPIREYIESGKPIMGICVGLQALFAGSVESPKSTGLNYIDFKLSRFDDSEKPVPEIGWNSCIPSENLFFGLDPYKRYYFVHSFAAILNSEKKKNLENDGWKIAKAKYGSEEFIAAVNKNNIFATQFHPEKSGKAGLNVIENFLKQQSPPIPNYSAEEKELLMNDYSNYGLTRRIIACLDVRTNDQGDLVVTKGDQYDVREKSDGKGVRNLGKPVQLAQKYYQQGADEVTFLNITSFRDCPLKDTPMLEVLKQAAKTVFVPLTVGGGIKDIVDVDGTKIPALEVASLYFRSGADKVSIGTDAVYAAEKYYELGNRGDGTSPIETISKAYGAQAVVISVDPKRVYVNSQADTKNKVFETEYPGPNGEKYCWYQCTIKGGRESRDLGVWELTRACEALGAGEILLNCIDKDGSNSGYDLELIEHVKDAVKIPVIASSGAGVPEHFEEAFLKTRADACLGAGMFHRGEFTVNDVKEYLLEHGLKVRMDEE”, which “soluble on expression in E. coli” value is on record?
Answer: The value was “soluble”.

Question: With “GSHMRLSDYFPESSISVIHSAKDWQEAIDFSMVSLLDKNYISENYIQAIKDSTINNGPYYILAPGVAMPHARPECGALKTGMSLTLLEQGVYFPGNDEPIKLLIGLSAADADSHIGAIQALSELLCEEEILEQLLTASSEKQLADIISRG” as the sequence, how does the “soluble on expression in E. coli” value read?
Answer: The value was “soluble”.

Question: Which “soluble on expression in E. coli” value does the source give for “GSHMSKDATKEISAPTDAKERSKAIETAMSQIEKAFGKGSIMKLGAESKLDVQVVSTGSLSLDLALGVGGIPRGRITEIYGPESGGKTTLALAIVAQAQKAGGTCAFIDAEHALDPVYARALGVNTDELLVSQPDNGEQALEIMELLVRSGAIDVVVVDSVAALTPRAEIEGDMGDSLPGLQARLMSQALRKLTAILSKTGTAAIFINQVREKIGVMYGNPETTTGGRALKFYASVRLDVRKIGQPTKVGNDAVANTVKIKTVKNKVAAPFKEVELALVYGKGFDQLSDLVGLAADMDIIKKAGSFYSYGDERIGQGKEKTIAYIAERPEMEQEIRDRVMAAIRAGNAGEAPALAPAPAAPEAAEA” here?
Answer: Its value is “soluble”.

Question: With “GSHMSVRIVDVREITKPISSPIRNAYIDFTKMTTSLVAVVTDVVREGKRVVGYGFNSNGRYGQGGLIRERFASRILEADPKKLLNEAGDNLDPDKVWAAMMINEKPGGHGERSVAVGTIDMAVWDAVAKIAGKPLFRLLAERHGVKANPRVFVYAAGGYYYPGKGLSMLRGEMRGYLDRGYNVVKMKIGGAPIEEDRMRIEAVLEEIGKDAQLAVDANGRFNLETGIAYAKMLRDYPLFWYEEVGDPLDYALQAALAEFYPGPMATGENLFSHQDARNLLRYGGMRPDRDWLQFDCALSYGLCEYQRTLEVLKTHGWSPSRCIPHGGHQMSLNIAAGLGLGGNESYPDLFQPYGGFPDGVRVENGHITMPDLPGIGFEGKSDLYKEMKALAE” as the sequence, how does the “soluble on expression in E. coli” value read?
Answer: The value was “soluble”.

Question: With “GSHMTIEQMVDRLLSYPERTKMQILAPIVSGKKGTHAKTLEDIRKQGYVRVRIDREMRELTGDIELEKNKKHSIDVVVDRIIIKDGIAARLADSLETALKLADGKVVVDVIGEGELLFS” as the sequence, how does the “soluble on expression in E. coli” value read?
Answer: The value was “soluble”.

Question: For “GSMIDKSAFVHPTAIVEEGASIGANAHIGPFCIVGPHVEIGEGTVLKSHVVVNGHTKIGRDNEIYQFASIGEVNQDLKYAGEPTRVEIGDRNRIRESVTIHRGTVQGGGLTKVGSDNLLMINAHIAHDCTVGNRCILANNATLAGHVSVDDFAIIGGMTAVHQFCIIGAHVMVGGCSGVAQDVPPYVIAQGNHATPFGVNIEGLKRRGFSREAITAIRNAYKLIYRSGKTLDEVKPEIAELAETYPEVKAFTDFFARSTRGLIR”, which “soluble on expression in E. coli” value is on record?
Answer: The value was “soluble”.

Question: For “GSMPTTCGFPNCKFRSRYRGLEDNRHFYRIPKRPLILRQRWLTAIGRTEETVVSQLRICSAHFEGGEKKEGDIPVPDPTVDKQIKIELPPK”, which “soluble on expression in E. coli” value is on record?
Answer: Its value is “soluble”.

Question: With “GSPELGFSFDYAYQPIVNLHDQSIFAHEALVRGPNGEGAMSVLNQVTDQNRYRFDQKCRTTAIAGAAKLGMTERLSINFLPNAVYRPELCIRSTLEAAKQHDFPIERLIFETIESEHVDNNNHLSNILREYREFGFMTAIDDFGAGYSGLTLLADFQPDLIKLDMNLVRDIHRDRARQAIVRGVVTMCKDLGIKLIAEGIEHIEERDFLADCGISLMQGYLFAKP” as the sequence, how does the “soluble on expression in E. coli” value read?
Answer: Its value is “not soluble”.

Question: Which “soluble on expression in E. coli” value does the source give for “GSPGIPGSTSELEEDFAKILMLKEERIKELEKRLSEKEEEIQELKRKLHKCQSVLPVPSTHIGPRTT” here?
Answer: Its value is “soluble”.

Question: For “GSPGISGGGGGILGLMAEQEPTAEQLAQIAAENEEDEHSVNYKPPAQKSIQEIQELDKDDESLRKYKEALLGRVAVSADPNVPNVVVTRLTLVCSTAPGPLELDLTGDLESFKKQSFVLKEGVEYRIKISFRVNREIVSGMKYIQHTYRKGVKIDKTDYMVGSYGPRAEEYEFLTPMEEAPKGMLARGSYNIKSRFTDDDRTDHLSWEWNLTIKKEWKD”, which “soluble on expression in E. coli” value is on record?
Answer: The value was “soluble”.

Question: With “GSQNNECKMVDLRGAKVASFTVEGCELICLPQAFDLFLKHLVGGLHTVYTKLKRLEITPVVCNVEQVRILRGLGAIQPGVNRCKLISRKDFETLYNDCTNA” as the sequence, how does the “soluble on expression in E. coli” value read?
Answer: Its value is “soluble”.

Question: Which “soluble on expression in E. coli” value does the source give for “GSSGSSGAAFAKILDPAYQVDKGGRVRFVVELADPKLEVKWYKNGQEIRPSTKYIFEHKGCQRILFINNCQMTDDSEYYVTAGDEKCSTELFVRSGPSSG” here?
Answer: Its value is “soluble”.

Question: For “GSSHHHHHHSSGLVPRGSHMSVQNVVLFDTQPLTLMLGGKLSYINVAYQTYGTLNDEKNNAVLICHALTGDAEPYFDDGRDGWWQNFMGAGLALDTDRYFFISSNVLGGCKGTTGPSSINPQTGKPYGSQFPNIVVQDIVKVQKALLEHLGISHLKAIIGGSFGGMQANQWAIDYPDFMDNIVNLCSSIYFSAEAIGFNHVMRQAVINDPNFNGGDYYEGTPPDQGLSIARMLGMLTYRTDLQLAKAFGRATKSDGSFWGDYFQVESYLSYQGKKFLERFDANSYLHLLRALDMYDPSLGYENVKEALSRIKARYTLVSVTTDQLFKPIDLYKSKQLLEQSGVDLHFYEFPSDYGHDAFLVDYDQFEKRIRDGLAGN”, which “soluble on expression in E. coli” value is on record?
Answer: Its value is “soluble”.

Question: For “GSVYNTKKVGKRLNIQLKKGTEGLGFSITSRDVTIGGSAPIYVKNILPRGAAIQDGRLKAGDRLIEVNGVDLAGKSQEEVVSLLRSTKMEGTVSLLVFRQEEAFHPREMNA”, which “soluble on expression in E. coli” value is on record?
Answer: Its value is “soluble”.

Question: With “GTPLSSDEKIRVLVWNIFKQQRAEWQSVLKNFGKDAHLVLLQEAQTTPELVRFATSNYLAADQVPALVLPQHPSGVMTLASAHPIYCCPLREREPILRLPKSALVTVYPLPDARLLMVVNIHAVNFSLGVDVYSKQLLPIGDQIAHHSGPVIMAGDFNAWSRPRMNALYRFAREMSLREVRFSDDQRRRAFGRPLDFVFYRGLSVHDASVLVTRASDHNPLLVEFSPGKP” as the sequence, how does the “soluble on expression in E. coli” value read?
Answer: The value was “not soluble”.

Question: For “GTQSTHESLKPQRVQFQSRNFHNILQWQPGRALTGNSSVYFVQYKIYGQRQWKNKEDCWGTQELSCDLTSETSDIQEPYYGRVRAASAGSYSEWSMTPRFTPWWETKIDPPVMNITQVNGSLLVILHAPNLPYRYQKEKNVSIEDYYELLYRVFIINNSLEKEQKVYEGAHRAVEIEALTPHSSYCVVAEIYQPMLDRRSQRSEERCVEIP”, which “soluble on expression in E. coli” value is on record?
Answer: Its value is “soluble”.

Question: With “GTVSATSPNKCKRPMNAFMLFAKKYRVEYTQMYPGKDNRAISVILGDRWKKMKNEERRMYTLEAKALAEEQKRLNPDCWK” as the sequence, how does the “soluble on expression in E. coli” value read?
Answer: The value was “soluble”.
